Values quoted from earlier work in US20080160019A1, “SEQUENTIAL COMBINATION THERAPY” (DYAX CORP., priority 2006, published 2008).

Molecular target: Tie1 (Homo sapiens, UniProt P35590)
Sequence (P35590 22-1138): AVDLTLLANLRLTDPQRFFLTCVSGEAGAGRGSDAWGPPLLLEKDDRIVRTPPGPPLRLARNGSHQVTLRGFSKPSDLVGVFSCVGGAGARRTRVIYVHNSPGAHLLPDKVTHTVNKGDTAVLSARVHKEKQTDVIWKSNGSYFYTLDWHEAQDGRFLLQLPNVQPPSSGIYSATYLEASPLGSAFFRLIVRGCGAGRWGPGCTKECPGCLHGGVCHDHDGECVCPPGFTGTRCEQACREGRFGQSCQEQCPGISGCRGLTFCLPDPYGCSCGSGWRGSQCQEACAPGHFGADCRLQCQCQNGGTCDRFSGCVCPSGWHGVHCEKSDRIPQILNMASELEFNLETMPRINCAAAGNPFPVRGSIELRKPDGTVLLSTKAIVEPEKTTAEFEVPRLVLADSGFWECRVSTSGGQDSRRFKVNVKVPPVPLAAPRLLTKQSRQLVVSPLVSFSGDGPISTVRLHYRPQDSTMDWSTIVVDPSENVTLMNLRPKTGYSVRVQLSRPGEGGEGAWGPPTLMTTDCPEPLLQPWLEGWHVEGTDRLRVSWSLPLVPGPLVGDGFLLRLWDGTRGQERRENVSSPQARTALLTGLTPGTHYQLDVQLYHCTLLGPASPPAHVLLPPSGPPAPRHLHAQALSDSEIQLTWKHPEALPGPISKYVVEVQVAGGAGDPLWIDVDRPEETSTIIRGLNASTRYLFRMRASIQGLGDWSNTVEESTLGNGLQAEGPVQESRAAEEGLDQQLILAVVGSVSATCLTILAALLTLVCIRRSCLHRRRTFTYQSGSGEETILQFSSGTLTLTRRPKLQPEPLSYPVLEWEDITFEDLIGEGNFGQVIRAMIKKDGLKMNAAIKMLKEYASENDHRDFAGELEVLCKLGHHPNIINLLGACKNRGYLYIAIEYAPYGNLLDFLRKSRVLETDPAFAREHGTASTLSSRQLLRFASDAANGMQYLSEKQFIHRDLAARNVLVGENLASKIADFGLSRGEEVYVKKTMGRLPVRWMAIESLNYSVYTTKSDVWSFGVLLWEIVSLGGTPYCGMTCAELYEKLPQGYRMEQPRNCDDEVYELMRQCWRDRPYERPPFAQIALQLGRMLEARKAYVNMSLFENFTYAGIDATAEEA

- Tie1 tyrosine phosphorylation: induce
- Tie complex formation: induce
- down modulation of Tie1 from the cell surface: induce
B1: M0044-B08: Tie1 ectodomain-binding antibody, variable domains SEQ ID NO:2 and 4 (antibody, listed as Homo sapiens, V domains shown)
VL: QDIQMTQSPSFLSASVGDRVTISCRASQYISIYLNWYQQRPGEAPKLLINAASSLQSGDPSRFSGSGSGTDFTLTINSLQPDDFATYYCQQYKSYPLTFGEGTKVEIK
VH: EVQLLESGGGLVQPGGSLRLSCAASGFTFSAYGMGWVRQAPGKGLEWVSVISPSGGQTSYADSVKGRFTISRDNSKNTLYLQMNSLRAEDTALYYCAGGDRYGPLHYWGQGTLVTVSS
